Article PMC3519907 (PLoS Biology, 2012)

Target: the molecule itself
Test: crystal structure; ΔNC-Fab complex 10-20 mg/mL, 25%-35% PEG400, 100 mM Ca-acetate or 300 mM KCl, pH 8.5-9.5, 22°C; dataset refined to 2.5 Å

B1: ΔNC CLC-ec1 (domain or fragment, Escherichia coli, UniProt P37019 1-460, looked up)
chain: MRRRQLIRQLLERDKTPLAILFMAAVVGTLVGLAAVAFDKGVAWLQNQRMGALVHTADNYPLLLTVAFLCSAVLAMFGYFLVRKYAPEAGGSGIPEIEGALEDQRPVRWWRVLPVKFFGGLGTLGGGMVLGREGPTVQIGGNIGRMVLDIFRLKGDEARHTLLATGAAAGLAAAFNAPLAGILFIIEEMRPQFRYTLISIKAVFIGVIMSTIMYRIFNHEVALIDVGKLSDAPLNTLWLYLILGIIFGIFGPIFNKWVLGMQDLLHRVHGGNITKWVLMGGAIGGLCGLLGFVAPATSGGGFNLIPIATAGNFSMGMLVFIFVARVITTLLCFSSGAPGGIFAPMLALGTVLGTAFGMVAVELFPQYHLEAGTFAIAGMGALLAASIRAPLTGIILVLEMTDNYQLILPMIITGLGATLLAQFTGGKPLYSAILARTLAKQEAEQ
notes: CLC-ec1, Cl-/H+ antiporter of Escherichia coli; Homodimer in the crystal (chains A and B); also called trimmed construct; source: E. coli, purified in decylmaltoside (His-tag removed, Superdex 200 gel filtration)
  binding result: binds
